Assay [1] has as its target T1, 人血清白蛋白 (human serum albumin) (human, UniProt P02768 25-609).
T1 construct: also called HSA
In words: phage ELISA, HSA coated, A650. A general note: An ELISA detects its analyte on a solid surface through an enzyme-linked reagent.

Assay [2] concerns the target IgG (coated control antigen). Briefly: phage ELISA, IgG coated, A650.
Assay [3] concerns the target T1, 人血清白蛋白 (human serum albumin). Briefly: ELISA, HSA coated, A650.
The target of assay [4] is T2, 牛血清白蛋白 (bovine serum albumin) (bovine, UniProt P02769 25-607).
T2 construct: also called BSA
Briefly: ELISA, antigen coated, purified HF11-FC, A650.

T1 sequence (P02768 25-609 limits assumed): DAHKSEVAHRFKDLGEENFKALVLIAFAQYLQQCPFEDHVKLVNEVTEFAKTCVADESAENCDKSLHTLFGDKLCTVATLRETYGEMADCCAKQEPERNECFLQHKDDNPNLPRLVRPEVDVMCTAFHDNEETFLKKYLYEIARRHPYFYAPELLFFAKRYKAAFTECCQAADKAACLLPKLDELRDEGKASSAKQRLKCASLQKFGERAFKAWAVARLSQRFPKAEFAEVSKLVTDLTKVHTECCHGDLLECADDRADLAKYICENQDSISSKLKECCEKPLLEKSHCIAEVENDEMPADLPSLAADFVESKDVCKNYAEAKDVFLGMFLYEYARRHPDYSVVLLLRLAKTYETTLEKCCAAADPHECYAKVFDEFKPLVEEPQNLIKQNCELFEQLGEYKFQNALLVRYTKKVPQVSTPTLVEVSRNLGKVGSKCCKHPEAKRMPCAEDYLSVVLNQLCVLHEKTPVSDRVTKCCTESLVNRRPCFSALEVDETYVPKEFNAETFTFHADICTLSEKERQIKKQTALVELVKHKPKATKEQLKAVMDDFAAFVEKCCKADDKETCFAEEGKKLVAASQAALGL
T2 sequence (P02769 25-607 limits assumed): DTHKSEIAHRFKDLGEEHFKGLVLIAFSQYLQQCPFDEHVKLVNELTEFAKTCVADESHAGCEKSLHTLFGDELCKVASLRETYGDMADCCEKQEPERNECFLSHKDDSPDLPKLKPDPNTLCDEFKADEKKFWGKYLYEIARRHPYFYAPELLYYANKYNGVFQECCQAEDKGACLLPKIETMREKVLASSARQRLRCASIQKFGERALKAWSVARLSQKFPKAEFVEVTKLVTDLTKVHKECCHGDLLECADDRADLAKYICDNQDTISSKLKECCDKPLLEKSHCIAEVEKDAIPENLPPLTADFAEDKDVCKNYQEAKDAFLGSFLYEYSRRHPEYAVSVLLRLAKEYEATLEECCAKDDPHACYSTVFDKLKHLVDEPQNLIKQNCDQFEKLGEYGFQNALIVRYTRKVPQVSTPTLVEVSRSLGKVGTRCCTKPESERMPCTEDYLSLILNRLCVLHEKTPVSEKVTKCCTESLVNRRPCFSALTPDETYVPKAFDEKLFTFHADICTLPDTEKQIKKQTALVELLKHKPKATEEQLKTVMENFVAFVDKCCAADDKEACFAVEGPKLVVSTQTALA

B1: HE9 单域抗体 (phage-displayed clone, culture supernatant) (VHH)
VHH: QVQLLESGGGLVQPGGSLRLSCAASGFMVTSEIMGWVRQAPGKGLEWVSTIVANNGSTYYADSVKGRFTISRDNSKNTLYLQMNSLRAEDTAVYYCASPPRRTGVDGTESMHFWGQGTLVTVSS
notes: Human heavy-chain single domain antibody on a DP47 framework; Tested in ELISA as phage in culture supernatant; not shown: Myc and VSV-G tags and phage GIII protein of display vector pBG3
With B1, the binding result in assay [1] is on record as “binds”. Moreover, the A650 in assay [2] was not above 0.3 A650.

B2: HB5 单域抗体 (phage-displayed clone, culture supernatant) (VHH)
VHH: QVQLLESGGGLVQPGGSLRLSCAASGVKAINHTMGWVRQAPGKGLEWVSAIRTPDGSTYYADSVKGRFTISRDNSKNTLYLQMNSLRAEDTAVYYCASVGDNAGSSSPPFASWGQGTLVTVSS
notes: Human heavy-chain single domain antibody on a DP47 framework; Tested in ELISA as phage in culture supernatant, detected with an HRP-labelled anti-phage antibody; not shown: Myc and VSV-G tags and phage GIII protein of display vector pBG3
For the molecule B2, in assay [1], the binding result is given as “binds”. Moreover, the A650 in assay [2] is not above 0.3 A650.

B3: HF11 单域抗体 (phage-displayed clone, culture supernatant) (VHH)
VHH: QVQLLESGGGLVQPGGSLRLSCAASGVKISYESMAWVRQAPGKGLEWVSSILMQNGSTYYADSVKGRFTISRDNSKNTLYLQMNSLRAEDTAVYYCATTRVRRPANMKYWGQGTLVTVSS
notes: as for B1
In turn, B3 yielded an A650 in assay [2] not above 0.3 A650.

B4: 融合蛋白HF11-FC (expressed from pcDNA3.1 in 293F cells) (Fc fusion)
chain: B3 VHH
notes: The secreted protein was purified on Protein A; not shown: human Fc; residues encoded by the BamHI site between the single domain antibody and Fc; no
Consider B4, for which the binding result in assay [3] is “binds”; in assay [4], “no binding”.
